Results on four molecules are retold here after patent publication US20240279357A1 (THERINI BIO, published 2024).

Sequences and labels used below:
T1: P2 peptide comprising SEQ ID NO: 31 (human fibrin γ377-395) (human)
T1 construct: Bought (CPC Scientific 920712); also called human P2 peptide
T1 peptide: YSMKKTTMKIIPFNRLTIG

B1: humanized VH5/Vκ2 antibody (antibody, IgG1, V domains shown)
VH: QVQLVQSGAEVKKPGSSVKVSCKASGYTFTSYWIHWVRQAPGQGLEWIGLIDPSDSYTNYNQKFRGRVTITRDTSTSTAYMELSSLRSEDTAVYYCASSDPTGCWGQGTTVTVSS
VL: DIVMTQAAFSNPVTPGTPASISCRSSKSLLHSSGITYLSWYLQKPGQSPQLLIYQMSNLASGVPDRFSSSGSGTDFTLKISRVEAEDVGVYYCAQNLELPLTFGQGTKLEIK
notes: IgG1; also called VH5/VK2; VH5Vk2
B2: humanized VH4/Vκ2 antibody (antibody, IgG1, V domains shown)
VH: QVQLVQSGAEVKKPGSSVKVSCKASGYTFTSYWIHWVRQAPGQGLEWIGLIDPSDSYTNYNQKFRGRVTITVDTSTSTAYMELSSLRSEDTAVYYCASSDPTGCWGQGTTVTVSS
VL: DIVMTQAAFSNPVTPGTPASISCRSSKSLLHSSGITYLSWYLQKPGQSPQLLIYQMSNLASGVPDRFSSSGSGTDFTLKISRVEAEDVGVYYCAQNLELPLTFGQGTKLEIK
notes: IgG1; also called VH4/VK2; VH4Vk2
B3: humanized VH4/Vκ1 antibody (antibody, IgG1, V domains shown)
VH: QVQLVQSGAEVKKPGSSVKVSCKASGYTFTSYWIHWVRQAPGQGLEWIGLIDPSDSYTNYNQKFRGRVTITVDTSTSTAYMELSSLRSEDTAVYYCASSDPTGCWGQGTTVTVSS
VL: DIVMTQAAFSNPITPGTPASISCRSSKSLLHSSGITYLSWYLQKPGQSPQLLIYQMSNLASGVPDRFSSSGSGTDFTLRISRVEAEDVGVYYCAQNLELPLTFGQGTKLEIK
notes: Expressed as IgG1; also called VH4/VK1; VH4Vk1
B4: humanized VH6/Vκ2 antibody (antibody, IgG1, V domains shown)
VH: QVQLVQSGAEVKKPGSSVKVSCKASGYTFTSYWIHWVRQAPGQGLEWIGLIDPSDSYTNYNQKFQGRVTITRDTSTSTAYMELSSLRSEDTAVYYCASSDPTGCWGQGTTVTVSS
VL: DIVMTQAAFSNPVTPGTPASISCRSSKSLLHSSGITYLSWYLQKPGQSPQLLIYQMSNLASGVPDRFSSSGSGTDFTLKISRVEAEDVGVYYCAQNLELPLTFGQGTKLEIK
notes: Expressed as IgG1; also called VH6/VK2; VH6Vk2

This experiment has as its target T1, P2 peptide comprising SEQ ID NO: 31 …. Kind of experiment: SPR (Biacore) single cycle, steady state fit; IgG from HEK supernatant captured, P2 peptide analyte. Here is the method: FIG. 18 illustrates the procedure used for the single cycle kinetics analysis. The Biacore T200 […] instrument was used for single cycle kinetics analysis with the control software v2.0.1, and evaluation software V3.0. The anti-human capture chip was used with a running buffer consisting of HBS-P+ buffer (pH 7.4) containing 0.1% BSA at 25° C. a flow rate of 30 μl/min. Neat HEK supernatants were used as ligand and loaded to ˜1674 RU at 10 μl/min. P2 peptide comprising SEQ ID NO: 31 (CPC Scientific 920712, Lot #CS-02-00350) was the analyte for the analysis. […] Regeneration was performed with MgCl₂. Antibodies were diluted in running buffer to a final concentration of 20 μg/ml, based on concentrations assessed by Octet titre. At the start of each cycle, antibodies were loaded onto Fc2, Fc3 and Fc4 of the anti-human capture chip (GE Healthcare, Little Chalfont, UK). IgGs were captured at a flow rate of 10 μl/min to give an immobilization level (RL) of ˜ 1674 RU, the theoretical value to obtain an RMax of ˜50 RU. The surface was then allowed to stabilize. Single cycle kinetic data was obtained with P2 peptide as the analyte at a flow rate of 30 μl/min to minimize any potential mass transport limitations. […] The signal from the reference channel Fc1 (no antibody) was subtracted from that of Fc2, Fc3 and Fc4 to correct for differences in non-specific binding to a reference surface. […] The association phase for the five injections of increasing concentrations of P2 peptide was monitored for 20 seconds each time and a single dissociation phase was measured for 25 seconds following the last injection analyte. Regeneration of the anti-human capture surface was conducted using one injection of 3.8 M magnesium chloride.
In general, Kd refers to the equilibrium constant for the complex coming apart. A low value points to higher affinity. B1: the dissociation constant (Kd) was determined as 130 µM and the “Relative KD” value amounted to 1.47 fold against VH0/VK0.
Regarding B2, binding was put at a Kd of 84.5 µM and the “Relative KD” value came to 0.8 fold against VH0/VK0.
For B3 the same measures were 105 µM and 1.18 fold against VH0/VK0.
Consider B4, for which the Kd came out at 124 µM and the “Relative KD” value came to 1.4 fold against VH0/VK0.
